Reference: patent US20100298225A1, “PEPTIDE GAP JUNCTION MODULATORS” (priority 2007, published 2010)

Molecular target: T1, carboxyl terminal domain (CT) of Cx43 (Rattus norvegicus, UniProt P08050)
T1 construct: GST (N, cleaved yes); made in house; host or cells: E. coli BL-21
Assay: Peptide binding to Cx43CT determined using surface plasmon resonance (SPR)
Settings: for SPR respons: immobilised recombinant Cx43CT; for SPR data normalised on Mw: value = (SPRrespons*100)/Mw
Protocol: 277(39):36706-36714 (2002), which is hereby incorporated by reference in its entirety. Briefly, cDNA derived from rat Cx43 was inserted into pGEX-6P-2 (Amersham) and expressed in E. coli (BL-21). The resultant GST-fusion protein was cleaved from the GST PreScission Protease® (Amersham Biosciences). The recombinant product after cleavage contained the sequence 255-382 of rCx43 preceded by four additional amino acids (GPLG). Protein concentration was measured using the Bio-Rad DC Protein Assay. Protein purity was assessed by SDS-PAGE.
Recombinant Cx43CT was covalently bound to a carboxylmethyl dextran matrix (Salamon et al., “Surface Plasmon Resonance Spectroscopy as a Tool for Investigating the Biochemical and Biophysical Properties of Membrane Protein Systems. II: Applications to Biological Systems,” Biochim. Biophys. Acta 1331(2):131-152 (1997), which is hereby incorporated by reference in its entirety). Specific peptides were presented and, when feasible, dissociation constants (KD) were calculated from the time course of binding and unbinding of the ligand, using a 1:1 (Langmuir) association and dissociation kinetic model (Biacore software package). In both phases (association and dissociation), the first 5-8 seconds of recording were not included in the fit, to avoid artifacts resulting from peptide distribution within the flow cells (Lang et al., “Surface Plasmon Resonance as a Method to Study the Kinetics and Amplitude of Protein-protein Binding,” in PRACTICAL METHODS IN CARDIOVASCULAR RESEARCH 936-947 (Stefan Dhein, Friedrich Wilhelm Mohr & Mario Delmar eds., 2005), which is hereby incorporated by reference in its entirety).
The peptides shown in table 2 and 3 were tested for binding to the carboxyl terminal domain (CT) of Cx43 using Surface Plasmon Resonance (“SPR”). SPR is a method that was used to identify the original RXPE sequence (Shibayama et al., “Identification of a Novel Peptide that Interferes with the Chemical Regulation of Connexin-43,” Circ. Res. 98:1365-72 (2006)). The amplitude of the response is also a function of the mass of the ligate, and the normalized data according to the individual peptide Mw's are shown in table 3.

T1 sequence (P08050 255-382): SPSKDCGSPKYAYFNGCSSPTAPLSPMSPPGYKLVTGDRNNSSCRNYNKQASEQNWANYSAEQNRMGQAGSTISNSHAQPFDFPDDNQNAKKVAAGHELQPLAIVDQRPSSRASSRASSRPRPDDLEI

Row | Substance | SPR respons (peptide 25 uM) [arbitrary units] | SPR respons (peptide 100 uM) [arbitrary units] | SPR respons (peptide 250 uM) [arbitrary units] | SPR respons (peptide 500 uM) [arbitrary units] | SPR respons (peptide 1 mM) [arbitrary units] | SPR data normalised on Mw (peptide 1 mM) | SPR data normalised on Mw (peptide 500 uM)
1 | Ac-Arg-Arg-Asn-Tyr-Gly-Gly-Gly-Ser-Ala-Val-Pro-Phe-Tyr-Arg-Arg-Asn-Tyr-NH2 (Ac-RRNYGGGSAVPFYRRNY-NH2) [Compound 2508] | 31.1 | 121.9 | 284.6 | 546.8 | 1024.5 |  | 
2 | Ac-Arg-Arg-Asn-Tyr-Ala-Val-Pro-Phe-Arg-Arg-Asn-Tyr-NH2 (Ac-RRNYAVPFRRNY-NH2) [Compound 2511] | 16.2 | 90.5 | 214.2 | 389.6 | 691.5 |  | 
3 | Ac-Tyr-Asn-Arg-Arg-NH2 (Ac-YNRR-NH2) [Compound 2499] |  |  |  |  | 69.4 | 10.7 | 
4 | Ac-Arg-Arg-Asn-Tyr-Ser-Ala-Val-Pro-Phe-Tyr-Ser-His-Ser-Arg-Arg-Asn-Tyr-NH2 (Ac-RRNYSAVPFYSHSRRNY-NH2) [Compound 2506] | 51.7 | 117.2 | 327 | 561.8 | 1172.8 |  | 
5 | Ac-Arg-Arg-Asn-Tyr-Gly-Gly-Ser-Ala-Val-Pro-Phe-Tyr-Ser-His-Arg-Arg-Asn-Tyr-NH2 (Ac-RRNYGGSAVPFYSHRRNY-NH2) [Compound 2510] | 40.3 | 176.2 | 331.5 | 643.3 | 1188 |  | 
6 | Ac-Arg-Arg-Asn-Tyr-Ser-His-Ser-Arg-Arg-Asn-Tyr-NH2 (Ac-RRNYSHSRRNY-NH2) [Compound 2507] | 42.3 | 113.5 | 254.2 | 438.5 | 703.2 |  | 
7 | Ac-Arg-Arg-Asn-Tyr-Gly-Gly-Gly-Arg-Arg-Asn-Tyr-NH2 (Ac-RRNYGGGRRNY-NH2) [Compound 2509] | 21.5 | 62.5 | 148.5 | 280.8 | 478.9 |  | 
8 | Ac-Arg-Arg-Asn-Tyr-Val-Pro-Arg-Arg-Asn-Tyr-NH2 (Ac-RRNYVPRRNY-NH2) [Compound 2512] | 14.8 | 50.7 | 117.2 | 227.3 | 394.7 |  | 
9 | Ac-Arg-Arg-Asn-Tyr-NH2 (Ac-RRNY-NH2) [Compound 2498] |  |  |  | 50.9 | 91 | 14.0 | 7.9
10 | Ac-Tyr-Asn-Arg-Arg-Gly-Gly-Gly-Ser-Ala-Val-Pro-Phe-Tyr-Ser-His-Ser-Tyr-Asn-Arg-Arg-NH2 (Ac-YNRRGGGSAVPFYSHSYNRR-NH2) [Compound 2496] | 67.7 | 155.9 | 358.1 | 738.6 | 1402 |  | 
